Data on one molecule can be found in article PMC9385671 (Nature Communications, 2022).

“And” between values parts separate entries of the source, which are not always exact repeats. Identical values can stand only once.

The target in data set [1] is T1, FtsZ-YFP-mts (Escherichia coli, UniProt P0A9A6). The arrangement: made in house; host or cells: E. coli BL21(DE3) for the wild type. The note with it: 0.5 μM protein, 4 mM GTP. How it is done: 1,2-dioleoyl-sn-glycero-3-phosphocholine (DOPC):1,2-dioleoyl-sn-glycero-3-phospho-(1’-rac-glycerol) (DOPG), 70:30 mol % mixture, was dissolved in chloroform in a quartz container, then dehumidified under a gas nitrogen stream. Chloroform traces were further removed through desiccation (1 h). Afterwards, the lipid film was hydrated to a final concentration of 4 mg/ml in supported lipid bilayers (SLB) buffer (50 mM Tris-HCl at pH 7.5, 150 mM KCl), and incubated at 37 °C for 30 min. The lipid film was then completely resuspended by vortexing rigorously to obtain multilamellar vesicles of different sizes. This mixture was then placed in a bath sonicator where shear forces help to reduce the size of the vesicles, giving rise to small unilamellar vesicles (SUVs). The SUV dispersion were stored at −20 °C as 20 µl aliquots.
Glass coverslips (1.5#, 24 x 24 mm) were cleaned by piranha solution overnight, followed by extensive washing with milliQ H2O. Then glass coverslips were blown dry with compressed air. The reaction chamber was prepared by attaching a plastic ring on a cleaned glass coverslip using ultraviolet glue (Thorlabs No. 68). For supported lipid bilayer formation, the SUV dispersion was diluted in SLB buffer to 0.5 mg/ml, of which 75 µl was added to the reaction chamber. Adding CaCl2 to a final concentration of 3 mM induced fusion of the vesicles and the formation of a lipid bilayer on coversilde. After 20 min of incubation at 37 °C, the sample was rinsed with 2 ml pre-warmed SLB buffer.
Polymerization was induced by adding 4 mM GTP.
The UltimateFocus feature of DeltaVision Elite maintains the focus plane constant in time. […] Fluorescence imaging was performed using a standard FITC filter set. Images were acquired with a PCO sCMOS 5.5 camera (PCO, Germany) controlled by the softWoRx Software (GE Healthcare Life Sciences, Germany). For time-lapse experiments, images were acquired every 3 s with a 0.05 s exposure time and light illumination shuttered between acquisitions.

In data set [2] the target is T1, FtsZ-YFP-mts. The note with it: on SLB; slope of kymographs. How it is done:
(§1) Images corresponded to an average of 5–10 frames from a time-series experiment. For the kymograph analysis, time-series acquisitions were filtered using a standard mean filter (2 pixel) and were drift corrected (multistackreg plugin). A MATLAB script allowed the user to define a ring by providing two coordinates. Every ring was automatically fitted to a circle with radius r. Then, three trajectories corresponding to three concentric circles having radii r, r + 1, and r − 1 pixels were determined. At this point, the script read the time-series data and calculated a kymograph for each time point and trajectory. To automatically calculate the slope, the kymograph was smoothed with a Savitzky-Golay filter of order 2 and enhance its contrast using a contrast-limited-adaptive-histogram-equalization (CLAHE) routine (MATLAB). Next, using Fourier analysis from previous study, the characteristic frequency for the patterns on the kymograph was found. Finally, the slope corresponded to the change in phase at this frequency. Quality criteria were properly chosen to reject low-quality regions over the kymograph. To synchronize time-lapse acquisitions, the initial frame (time 0) was defined when surface mean intensity was around 200 A.U.

The test system of data set [3] is FtsZ-YFP-mts. The note with it: on SLB; mean ± SD. How it is done:
as §1

In data set [4] the target is T1, FtsZ-YFP-mts. The note with it: on SLB; n = 6. How it is done:
(§2) Fluorescence recovery after photobleaching data (FRAP) on the SLB were evaluated by choosing two separately circle areas (r = 4 µm). One circle was taken as a reference. Another one was photobleached by 20 iterations of 488 nm, laser under 100% laser power. Their fluorescence recovery in the green channel was monitored. Intensity traces were collected using Fiji, corrected for photobleaching and normalized with the pre-bleaching intensity and the reference intensity. The fluorescence recovery curves were then fitted with mono-exponential equation using Originpro (v_2017 & v_2019):1 Y=Ae^−kt+B, where Y represents fluorescence intensity at time t, A and B are parameters, and k represents the rate constant. The half-life, t1/2, was determined using the following equation:2 t1/2=ln2k^−1

For data set [5], the system named is FtsZ-YFP-mts. The note with it: FRAP. How it is done: as §2
Data set [6] concerns the target T1, FtsZ-YFP-mts. Type of data set: biochemical. Details: made in house; host or cells: E. coli BL21(DE3) for the wild type. The note with it: 5 μM protein, 1 mM GTP. How it is done: Reactions were performed every 20 s for a total time of 120 s. After 30 min of incubation with BIOMOL® GREEN at room temperature, the absorbance of the samples at 620 nm was monitored by TECAN plate reader. The phosphate release concentrations were calculated based on a phosphate standard curve.

In data set [7] the target is T1, FtsZ-YFP-mts. The note with it: total protein 0.5 µM. How it is done:
The final volume of a sample was approximately 250 μl. […] Polymerization was induced by adding 4 mM GTP.

B1: Wild type FtsZ-YFP-mts: truncated FtsZ(1-366) fused with yellow fluorescent protein (YFP) and a membrane-targeting sequence (mts) (protein)
chain: MFEPMELTNDAVIKVIGVGGGGGNAVEHMVRERIEGVEFFAVNTDAQALRKTAVGQTIQIGSGITKGLGAGANPEVGRNAADEDRDALRAALEGADMVFIAAGMGGGTGTGAAPVVAEVAKDLGILTVAVVTKPFNFEGKKRMAFAEQGITELSKHVDSLITIPNDKLLKVLGRGISLLDAFGAANDVLKGAVQGIAELITRPGLMNVDFADVRTVMSEMGYAMMGSGVASGEDRAEEAAEMAISSPLLEDIDLSGARGVLVNITAGFDLRLDEFETVGNTIRAFASDNATVVIGTSLDPDMNDELRVTVVATGIGMDKRPEITLVTNKQVQQPVMDRYQQHGMAPLTQEQKPVAKVVNDNAPQTA
modifications: left off: YFP, end not stated, kept | mts (membrane-targeting sequence), end not stated, kept
For the molecule B1, the “Ring pattern formation on supported lipid bilayer” value with FtsZ-YFP-mts [1] (TIRFM) is listed as “homogeneous treadmilling ring pattern”. Besides, the Average ring diameter in the data set with FtsZ-YFP-mts [1] (on SLB, mean ± SD) came to 0.80 ± 0.18 μm. Besides, in the data set with FtsZ-YFP-mts [2], the “Mean rotation (treadmilling) velocity” value amounted to 21.63 ± 5.11 nm/s. This molecule showed a Treadmilling velocity in the data set with FtsZ-YFP-mts [3] of 21.63 ± 5.11 nm/s. Moreover, the FRAP half-time in the data set with FtsZ-YFP-mts [4] is on record as 4.97 ± 0.24 s. In addition, the “half time, ave” value with FtsZ-YFP-mts [5] (average of the three measurements (stdev in the row below), Fig. 2h) worked out at 4.974 s. In the data set on FtsZ-YFP-mts [5] (individual measurements, source data of Fig. 2h), the half time was 4.866 s and 5.251 s and 4.806 s. In addition, the “GTPase activity, Average” value in the data set with FtsZ-YFP-mts [6] (average of two repeats) is reported as 7.3492 pi/min. Besides, in the data set with FtsZ-YFP-mts [6] (repeat 1 and repeat 2), the “GTPase activity, single repeats” value was 7.7984 pi/min and 6.9 pi/min. For the same molecule, in the data set with FtsZ-YFP-mts [6] (time 0.3 min, repeats 1 and 2), the “Phosphate at Time 0.3 min” value is 6.378 µM and 10.2373 µM. For the same molecule, the “Phosphate at Time 0.7 min” value in the data set with FtsZ-YFP-mts [6] (time 0.7 min, repeats 1 and 2) is 8.111 µM. In the data set with FtsZ-YFP-mts [6] (time 1 min, repeats 1 and 2), the “Phosphate at Time 1 min” value was 13.7966 µM and 9.644 µM. The “Phosphate at Time 2 min” value with FtsZ-YFP-mts [6] (time 2 min, repeats 1 and 2) is 19.8222 µM and 22.4068 µM. In addition, the “Ring density, Average” value in the data set with FtsZ-YFP-mts [7] (average of three repeats) came to 144248 µm−2. Also, in the data set with FtsZ-YFP-mts [7] (repeats 1-3, listed as 0 Cl2Y), the “Ring density, single repeats” value was 133565 µm−2 and 142057 µm−2 and 157123 µm−2. Also, the Ring density with FtsZ-YFP-mts [7] (stated percentage of Cl2Y modified variant) is on record as 1.44 (±0.12) × 10^5 µm^−2.
